{"source": "patent US20260028421A1", "about": "(JIANGSU HENGRUI PHARMACEUTICALS, published 2026)", "key": {"[1]": {"molecular_target": "T1, Human GUCY2C protein on cells (HCT116/hGUCY2C, HT-55, T84, LS1034, LS174T) (human, UniProt P25092 24-1073)", "experiment": "cell-based or functional assay"}, "[2]": {"molecular_target": "T1, Human GUCY2C protein on cells …", "experiment": "cell-based or functional assay", "remark": "listed apart in the source"}, "hGUCY2C ECD-His": {"molecular_target": "T2, hGUCY2C ECD-His (human, UniProt P25092 24-430)", "T2 construct": "also called human GUCY2C protein", "experiment": "ELISA, antigen on streptavidin plate", "method": "In this test example, the binding activity of the GUCY2C-CD3 bispecific antibodies for human GUCY2C was detected by ELISA. The specific procedures are as follows:\nThe plate was coated by adding 100 ng of streptavidin (ACRO #STN-N5116) to the reaction wells and incubated overnight at 4° C. After the blocking with 1% BSA (PBS), 100 ng of hGUCY2C ECD-His was added, and the mixture was incubated at 37° C. for 1 h. After plate washing, the gradiently diluted antibody was added, and the mixture was incubated at 37° C. for 1 h. […] After plate washing, a substrate solution was added, and a stop solution was then added after sufficient color development to stop the reaction. The signal values at […] were read using a microplate reader."}, "[3]": {"molecular_target": "T1, Human GUCY2C protein on cells …", "experiment": "cell-based or functional assay", "remark": "listed apart in the source"}}, "note": "Read-outs that look alike come from different tables or passages of the source.", "data": [{"binder": "81 L3H1-2 (N103QN106Q) (bispecific antibody) heavy 1: not shown light 1: not shown heavy 2: EVQLVQSGAEVKKPGASVKVSCKASGYTFTDHNMNWVKQAPGQRLEWMGVMNPKFGTINYNQKFKDKATITRDTSASTAYMELSSLRSEDTAVYYCARDNYPNYFDYWGQGTTVTVSSGGGGSSGAPRFLTRPKASVVSVGKDATLSCQIVGNPFPQVSWEKDKQPVTAGVRFRLAQDGDLYRLKILDLQLSDSGQYVCRARNAHGEAFACLGLQVDAEADKTHTCPPCPAPEAAGGPSVFLFPPKPKDTLMISRTPEVTCVVVDVSHEDPEVKFNWYVDGVEVHNAKTKPREEQYNSTYRVVSVLTVLHQDWLNGKEYKCKVSNKALPAPIEKTISKAKGQPREPQVCTLPPSREEMTKNQVSLSCAVKGFYPSDIAVEWESNGQPENNYKTTPPVLDSDGSFFLVSKLTVDKSRWQQGNVFSCSVMHEALHNHYTQKSLSLSPGK light 2: DIQLTQSPSFLSASPGDRVTITCSASSSVNYMYWYQQKPGSSPKSWIYRTSNLASGVPSRFSGSGSGTEYTLTISSLQPEDFATYYCQQYHDYPPTFGGGTKVEIKGGGGSGIPPKIECLPIDISIDEGKVLTVASAFTGEPTPEVTWSTGGRKIHSQEQGRFHIENTDDSTTLTIKDVQKQDGGLYTLTLRNEFGSDSATVNIHIRSI", "values": [{"measurement": "IC50 (nM), killing of LS174T with PBMC", "setting": "[1]", "result": 0.16, "unit": "nM"}]}, {"binder": "146 L1H1-2 (bispecific antibody, GUCY2C-CD3, Format 2, CD3 arm S107E) heavy 1: not shown light 1: not shown heavy 2: EFQLVQSGAEVKKPGASVKVSCKASGYSFTDYNMNWVRQAPGQRLEWMGLINPKYGTTNYNQKFKGRVTLTVDQSSSTAYMELSSLRSEDTAVYYCARDNYPAWFAYWGQGTTVTVSSGGGGSSGAPRFLTRPKASVVSVGKDATLSCQIVGNPFPQVSWEKDKQPVTAGVRFRLAQDGDLYRLKILDLQLSDSGQYVCRARNAHGEAFACLGLQVDAEADKTHTCPPCPAPEAAGGPSVFLFPPKPKDTLMISRTPEVTCVVVDVSHEDPEVKFNWYVDGVEVHNAKTKPREEQYNSTYRVVSVLTVLHQDWLNGKEYKCKVSNKALPAPIEKTISKAKGQPREPQVCTLPPSREEMTKNQVSLSCAVKGFYPSDIAVEWESNGQPENNYKTTPPVLDSDGSFFLVSKLTVDKSRWQQGNVFSCSVMHEALHNHYTQKSLSLSPGK light 2: EIVLTQSPATLSLSPGERATLSCSASSSLNYMYWYQQKPGSSPRPWIYRTSQLASGVPARFSGSGSGTDYTLTISSLEPEDFAVYYCQQYHSYPPTFGGGTKVEIKGGGGSGIPPKIECLPIDISIDEGKVLTVASAFTGEPTPEVTWSTGGRKIHSQEQGRFHIENTDDSTTLTIKDVQKQDGGLYTLTLRNEFGSDSATVNIHIRSI", "values": [{"measurement": "IC50 (nM), killing of HT-55(++) with PBMC", "setting": "[2]", "result": 0.56, "unit": "nM"}, {"measurement": "IC50 (nM), killing of LS174T(+) with PBMC", "setting": "[2]", "result": 0.49, "unit": "nM"}, {"measurement": "IC50 (nM), killing of LS1034(+++) with PBMC", "setting": "[2]", "result": 0.17, "unit": "nM"}, {"measurement": "EC50", "setting": "hGUCY2C ECD-His", "result": 0.06, "unit": "nM"}]}, {"binder": "P3-C7 L7H1-3 (bispecific antibody) heavy 1: not shown light 1: DVVMTQTPLSLPVTPGEPASISCRSSQSLVHSNQNTYLHWYLQKPGQSPQLLIYKVSNRFSGVPDRFSGSGSRTDFTLKISRVEAEDVGVYYCSQSTHVPYTFGGGTKVEIKGGGGSGIPPKIECLPIDISIDEGKVLTVASAFTGEPTPEVTWSTGGRKIHSQEQGRFHIENTDDSTTLTIKDVQKQDGGLYTLTLRNEFGSDSATVNIHIRSI heavy 2: not shown light 2: not shown", "values": [{"measurement": "IC50 (nM), killing of LS174T with PBMC", "setting": "[3]", "result": 0.49, "unit": "nM"}]}]}
